Target: recombinant human BMP6 (human) (UniProt P22004)
Assay: cell-based or functional assay

Chain of UniProt P22004 (P22004 382-513 limits assumed): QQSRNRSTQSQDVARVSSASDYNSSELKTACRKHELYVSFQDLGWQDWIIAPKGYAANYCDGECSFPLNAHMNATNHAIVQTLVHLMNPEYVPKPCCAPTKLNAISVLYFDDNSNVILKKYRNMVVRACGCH

BMP6-induced melanin content in human epidermal melanocytes (72 h): 15%
Substance: recombinant human Sclerostin (from UniProt Q9BQB4 24-213)

Reference: patent US20110206625A1
